Measured values taken from the supplement of paper PMC9170038.

System: MS2 coat protein
Experiment: apparent KD of MS2 coat protein; designed switch direction (-1 OFF switch, 1 ON switch): -1; higher = weaker reporter binding
How it was run: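 An oligonucleotide input, 200 uM small-molecule ligand, or no input was present during titration of SNAP-549-labelled MS2 coat protein, which was doubled from 0.7 or 1.5 nM to 3 µM. Designed RNA switches had been transcribed on Illumina chips by stalled E. coli RNA polymerase. Apparent KD per design is the median over clusters of curves fitted to normalised cluster fluorescence.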

[1] = Eterna round: R95, input ligand: microRNA oligo, concentration not stated
[2] = input ligand: microRNA oligo, concentration not stated
[3] = Eterna round: R95, input ligand: FMN 200 uM
[4] = Eterna round: R95, input ligand: none

Sequence: GUAGAGUAAGGAUAUGGUGAAUAGGAUAGAAUGGUUAGAAAUCAGAAGGUACAUGAGGAUCACCCAUGUAAUGU [Excluse me!!!! 15 - Jieux - Exclusion 4] (puzzle: Exclusion 4)
- apparent KD of MS2 coat protein [1]: 0.021 µM

Sequence: GUAGAGUCAGGAUAUACGAGAUCGAAAGAUCAGUGAUCCUUACAUGAGGAUCACCCAUGUAGAAGGGACUCUAC [Omei mod 8 to Eli's favorate candidate (ch.parushev)] (Eterna round: R97, puzzle: Exclusion 2)
- apparent KD of MS2 coat protein (input ligand: FMN 200 uM): 0.0419 µM
- apparent KD of MS2 coat protein (input ligand: none): 0.388 µM

Sequence: GUAGAGUGAGGAUAUACGAGAUCGAUAGAUCAACGAUCCAAACAUGAGGAUCACCCAUGUAGAAGGCACUCUAC [Mat - Exclusion 2 - Eli Mod - D8] (Eterna round: R97, puzzle: Exclusion 2)
- apparent KD of MS2 coat protein (input ligand: FMN 200 uM): 0.224 µM
- apparent KD of MS2 coat protein (input ligand: none): 0.0231 µM

Sequence: GUAGAGUGAGGAUAUACGAGAUCGAUAGAUCGGCGAUCCAUACAUGAGGAUCACCCAUGUAGAAGGCACUCUAC [Mat - Exclusion 2 - Eli Mod - D2] (Eterna round: R97, puzzle: Exclusion 2)
- apparent KD of MS2 coat protein (input ligand: FMN 200 uM): 0.625 µM
- apparent KD of MS2 coat protein (input ligand: none): 0.0293 µM

Sequence: GUAUAACAUGUAGGAUAUGCGUGGCGAAGCUAUGCAGAAGGACAUGAGGAUCACCCAUGUUUUAGCGUCUGCGUACAGAUGCAA [JL ENG1 1.39] (Eterna round: R96, puzzle: Exclusion NG 1)
- apparent KD of MS2 coat protein (input ligand: FMN 200 uM): 0.143 µM
- apparent KD of MS2 coat protein [2]: 0.0201 µM
- apparent KD of MS2 coat protein (input ligand: none): 0.0263 µM

Sequence: GUAUAACUACACGGGCUCAACAUGAGGAUCACCCAUGUCAUAUACGCAAGCUUUUUGCUUGUCUUACCUGUCCGUGA [Ariedbi] (puzzle: Sensor v3, turn-off variant 1)
- apparent KD of MS2 coat protein [3]: 0.0115 µM
- apparent KD of MS2 coat protein [1]: 0.0104 µM
- apparent KD of MS2 coat protein [4]: 0.0101 µM

Sequence: GUCACAUGGACAUAGGAUCACAUGAGGAUCACCCAUGUGACUAACAAGCUUUUUGCUCGUCUUAUGUCCAUGUGAAU [Stov1/15-A3] (Eterna round: R97, puzzle: Sensor, turn-off variant 1)
- apparent KD of MS2 coat protein (input ligand: FMN 200 uM): 0.013 µM
- apparent KD of MS2 coat protein (input ligand: none): 0.0129 µM

Sequence: GUCACAUGGACAUAGGAUCACAUGAGGAUCACCCAUGUGACUAACAAGCUUUUUGCUCGUCUUAUGUCUAUGUGAAG [Stov1/16-A3] (Eterna round: R97, puzzle: Sensor, turn-off variant 1)
- apparent KD of MS2 coat protein (input ligand: FMN 200 uM): 0.0144 µM
- apparent KD of MS2 coat protein (input ligand: none): 0.0124 µM

Sequence: GUCACAUGGGUGUAGAAUCACAUGAGGAUCACCCAUGUGACUAACAAGCUUUUUGCUCGUCUUAUGUCUAUGUGAAG [Stov1/17-A3] (Eterna round: R97, puzzle: Sensor, turn-off variant 1)
- apparent KD of MS2 coat protein (input ligand: FMN 200 uM): 0.0587 µM
- apparent KD of MS2 coat protein (input ligand: none): 0.0321 µM

Sequence: GUCACCUCGGUGACAAAGCACAUGAGGAUCACCCAUGUAUGUGCUUGGAAACAAGCAUUUUGUUCGUCUUAUAAGAA [same principle] (Eterna round: R96, puzzle: Sensor v2, turn-off variant)
- apparent KD of MS2 coat protein (input ligand: FMN 200 uM): 0.0227 µM
- apparent KD of MS2 coat protein [2]: 0.0954 µM
- apparent KD of MS2 coat protein (input ligand: none): 0.0216 µM

Sequence: GUCACGUAAGGAUAUCAUUAGUUGGACAUGAGGAUCACCCAUGUGAGACUAACUCCGGCGUGAGAAGGUGCGUUAA [Arorza] (puzzle: Exclusion 5)
- apparent KD of MS2 coat protein [1]: 0.012 µM

Sequence: GUCACUAGAGGAUAUACAAUGGUAUAUGAUCCUAGUGACAAACAUGAGGAUCACCCAUGUAGAAGGCUAGUAAA [Exclusion 2 - 2] (puzzle: Exclusion 2)
- apparent KD of MS2 coat protein [3]: 0.0245 µM
- apparent KD of MS2 coat protein [1]: 0.0283 µM
- apparent KD of MS2 coat protein [4]: 0.028 µM

Sequence: GUCAGCUCGUCAGGAUAUACAUGAGGAUCACCCAUGUGGUCAUUAGCAGCUUCGGCUGCAUUAAUGUAGAAGGGACGAGCUGAC [ENG2/8-B1] (Eterna round: R96, puzzle: Exclusion NG 2)
- apparent KD of MS2 coat protein (input ligand: FMN 200 uM): 1.12 µM
- apparent KD of MS2 coat protein [2]: 0.357 µM
- apparent KD of MS2 coat protein (input ligand: none): 0.591 µM

Sequence: GUCAGCUCGUCAGGAUAUACAUGAUAGAUCGAUUAAUUAAUUAAUUUAACAUGAGGAUCACCCAUGUAGAAGGGACGAGCUGAU [ENG2/1-B2] (Eterna round: R96, puzzle: Exclusion NG 2)
- apparent KD of MS2 coat protein [2]: 0.0592 µM

Sequence: GUCAGCUCGUCAGGAUAUAUAUAUACAUGAGGAUCACCCAUGUUAGAUCAGCUUCGGCAGUAUAUAUAGAAGGGACGAGCUGAC [ENG2/15-B1] (Eterna round: R96, puzzle: Exclusion NG 2)
- apparent KD of MS2 coat protein (input ligand: FMN 200 uM): 0.153 µM
- apparent KD of MS2 coat protein [2]: 0.059 µM
- apparent KD of MS2 coat protein (input ligand: none): 0.0725 µM

Sequence: GUCAGCUCGUGAGGAUAUACAUCACUGCUUCGGCAGUGUAUUAAGAUCACAUGAGGAUCACCCAUGUAGAAGGCACGAGCUGAC [ENG2/2-A1] (Eterna round: R96, puzzle: Exclusion NG 2)
- apparent KD of MS2 coat protein (input ligand: FMN 200 uM): 0.309 µM
- apparent KD of MS2 coat protein [2]: 0.034 µM
- apparent KD of MS2 coat protein (input ligand: none): 0.0296 µM

Sequence: GUCAGCUCGUGAGGAUAUACAUGCGUGCUUCGGCACGUAUGAUAGAUCACAUGAGGAUCACCCAUGUAGAAGGUACGAGCUGAU [ENG2/4-C2] (Eterna round: R96, puzzle: Exclusion NG 2)
- apparent KD of MS2 coat protein (input ligand: FMN 200 uM): 0.0149 µM
- apparent KD of MS2 coat protein [2]: 0.0108 µM
- apparent KD of MS2 coat protein (input ligand: none): 0.0152 µM

Sequence: GUCAGCUCGUGAGGAUAUGCACAUGAGGAUCACCCAUGUAAGAUCAAGCUGCUUCGGCAGCAAGUGCAGAAGGUACGAGCUGAC [ENG2/9-C1] (Eterna round: R96, puzzle: Exclusion NG 2)
- apparent KD of MS2 coat protein (input ligand: FMN 200 uM): 0.2 µM
- apparent KD of MS2 coat protein [2]: 0.207 µM
- apparent KD of MS2 coat protein (input ligand: none): 0.297 µM

Sequence: GUCAGGAAUGUAGGAUAUCUGCACGUGUAGUGCAGAGAAGGACAUGAGGAUCACCCAUGUAUAGUAGCUUCGGCUACACCUGAC [ENG1-A3] (Eterna round: R96, puzzle: Exclusion NG 1)
- apparent KD of MS2 coat protein (input ligand: FMN 200 uM): 0.018 µM
- apparent KD of MS2 coat protein [2]: 0.00993 µM
- apparent KD of MS2 coat protein (input ligand: none): 0.0181 µM

Sequence: GUCAUACAUGAGGAUCACCCAUGUAAGGAUAUGCUAGCGGUCGGAAGACUGACUGCUAGCAGAAGGUACAUGAU [Mat - Mod of JL D80] (puzzle: Exclusion 1)
- apparent KD of MS2 coat protein [1]: 0.0615 µM

Sequence: GUCAUCAAACAUGGGAUAAACAUGAGGAUCACCCAUGUUUACAAGUUUUUUGCUCGUCUUAUAAUAAGUUUGAUGAC [Antenna 8 - Jieux - Sensor, turn-off variant 1] (Eterna round: R97, puzzle: Sensor, turn-off variant 1)
- apparent KD of MS2 coat protein (input ligand: FMN 200 uM): 0.014 µM
- apparent KD of MS2 coat protein (input ligand: none): 0.015 µM

Sequence: GUCCGACAUGAGGAUCACCCAUGUGAGGAUAUGCGAUUAGCUGCUAGGUAGUUAGUAUGUAGAAGGCGCAUGAA [EX1 #76] (Eterna round: R97, puzzle: Exclusion 1)
- apparent KD of MS2 coat protein (input ligand: FMN 200 uM): 0.0219 µM
- apparent KD of MS2 coat protein (input ligand: none): 0.0245 µM

Sequence: GUCGAGUGAGGAUAUGGUGAGUAGUGCCAGAGCGCUGCUCACCAGAAGGCACAUGAGGAUCACCCAUGUAUAGC [Mat - Exclusion 4 - Mod of JL - D13] (puzzle: Exclusion 4)
- apparent KD of MS2 coat protein [1]: 0.0152 µM

Sequence: GUCGUGACCAAGGAUAUAGCUAGGGAAGGAAAGUUAGAAGGUGGUACAUGAGGAUCACCCAUGUAGUCCACAAA [Dixeatleve] (puzzle: Exclusion 6)
- apparent KD of MS2 coat protein [3]: 0.0131 µM
- apparent KD of MS2 coat protein [1]: 0.013 µM
- apparent KD of MS2 coat protein [4]: 0.0129 µM

Sequence: GUCGUGCGGCUUUGCUGUACGAGUACAUGAGGAUCACCCAUGUAGGAUAUGGCACGCUUUGCGUGCCAGAAGGGCGUGCGUUGG [Excl-NG3-LRO10] (Eterna round: R96, puzzle: Exclusion NG 3)
- apparent KD of MS2 coat protein (input ligand: FMN 200 uM): 0.0351 µM
- apparent KD of MS2 coat protein [2]: 0.0215 µM
- apparent KD of MS2 coat protein (input ligand: none): 0.0284 µM

Sequence: GUCGUGCGGCUUUGCUGUGCGGGUACAUGAGGAUCACCCAUGUAGGAUAUGGUACGCUUUGCGUGCCAGAAGGGCGUGCGUUGG [salish99_ExNG3_r04_008] (Eterna round: R96, puzzle: Exclusion NG 3)
- apparent KD of MS2 coat protein (input ligand: FMN 200 uM): 0.0384 µM
- apparent KD of MS2 coat protein [2]: 0.0263 µM
- apparent KD of MS2 coat protein (input ligand: none): 0.0366 µM

Sequence: GUCGUGUUAGGAUAUGGCGGCGGCGGCGAAAGUUGUUGUUGUUAGAAGGAACAUGAGGAUCACCCAUGUAUGAC [-26 -25.5 kcal, A 24%] (Eterna round: R97, puzzle: Exclusion 4)
- apparent KD of MS2 coat protein (input ligand: FMN 200 uM): 0.104 µM
- apparent KD of MS2 coat protein (input ligand: none): 0.0353 µM

Sequence: GUCUACCAGCUAGGAUAUGCAGUACAGUAAAAUGUAGAAGGAGCACGAUCCAGACAUGAGGAUCACCCAUGUGGGCGGUAGGCA [Vebiena] (Eterna round: R96, puzzle: Exclusion NG 1)
- apparent KD of MS2 coat protein (input ligand: FMN 200 uM): 0.0198 µM
- apparent KD of MS2 coat protein [2]: 0.00952 µM
- apparent KD of MS2 coat protein (input ligand: none): 0.0173 µM

Sequence: GUCUUCAUGACAUGAGGAUCACCCAUGUGUUAUUUGUUAACUAAGGAUAUAUUUUUAAUGUUGAGAUAGAAGGUAGUUUCGGUC [JR_ExcNG3_Sub090] (Eterna round: R96, puzzle: Exclusion NG 3)
- apparent KD of MS2 coat protein (input ligand: FMN 200 uM): 0.161 µM
- apparent KD of MS2 coat protein [2]: 0.093 µM
- apparent KD of MS2 coat protein (input ligand: none): 0.149 µM

Sequence: GUGAGACAUGAGGAUCACCCAUGUCAGGAUAUGAUACUAUGUACUUCGGUACAUAGUAUCAGAAGGGACAGUGA [Ex1-3: 5] (puzzle: Exclusion 1)
- apparent KD of MS2 coat protein [1]: 0.0425 µM

Sequence: GUGAUAUAGUUAGUGGCCUACAUGAGGAUCACCCAUGUGAGGGAAAUGUUGAGGCGAAAGUUGUGUGCUCGUCUGUA [JR_SV3TOV1_Sub039] (puzzle: Sensor v3, turn-off variant 1)
- apparent KD of MS2 coat protein [3]: 0.0236 µM
- apparent KD of MS2 coat protein [1]: 0.0389 µM
- apparent KD of MS2 coat protein [4]: 0.0265 µM

Sequence: GUGAUCUAUCAUGGAAUAAACAUGAGGAUCACCCAUGUAGACAAGUUUUUUGCUCGUCUUAUAAUAAGAUAGAUCAC [Antenna 14 - Jieux - Sensor, turn-off variant 1] (Eterna round: R97, puzzle: Sensor, turn-off variant 1)
- apparent KD of MS2 coat protein (input ligand: FMN 200 uM): 0.0155 µM
- apparent KD of MS2 coat protein (input ligand: none): 0.0142 µM

Sequence: GUGAUCUAUCAUGUAAUGAACAUGAGGAUCACCCAUGUAGGCAGGUUUUUUGCUCGUCACAUAAUAAGAUAGAUCAC [Antenna 20 - Jieux - Sensor, turn-off variant 1] (Eterna round: R97, puzzle: Sensor, turn-off variant 1)
- apparent KD of MS2 coat protein (input ligand: FMN 200 uM): 0.0186 µM
- apparent KD of MS2 coat protein (input ligand: none): 0.0242 µM
